Consider one substance from patent US20150306234.

The data set deals with T1, BDD FVIII mutein S2186C.
T1 sequence: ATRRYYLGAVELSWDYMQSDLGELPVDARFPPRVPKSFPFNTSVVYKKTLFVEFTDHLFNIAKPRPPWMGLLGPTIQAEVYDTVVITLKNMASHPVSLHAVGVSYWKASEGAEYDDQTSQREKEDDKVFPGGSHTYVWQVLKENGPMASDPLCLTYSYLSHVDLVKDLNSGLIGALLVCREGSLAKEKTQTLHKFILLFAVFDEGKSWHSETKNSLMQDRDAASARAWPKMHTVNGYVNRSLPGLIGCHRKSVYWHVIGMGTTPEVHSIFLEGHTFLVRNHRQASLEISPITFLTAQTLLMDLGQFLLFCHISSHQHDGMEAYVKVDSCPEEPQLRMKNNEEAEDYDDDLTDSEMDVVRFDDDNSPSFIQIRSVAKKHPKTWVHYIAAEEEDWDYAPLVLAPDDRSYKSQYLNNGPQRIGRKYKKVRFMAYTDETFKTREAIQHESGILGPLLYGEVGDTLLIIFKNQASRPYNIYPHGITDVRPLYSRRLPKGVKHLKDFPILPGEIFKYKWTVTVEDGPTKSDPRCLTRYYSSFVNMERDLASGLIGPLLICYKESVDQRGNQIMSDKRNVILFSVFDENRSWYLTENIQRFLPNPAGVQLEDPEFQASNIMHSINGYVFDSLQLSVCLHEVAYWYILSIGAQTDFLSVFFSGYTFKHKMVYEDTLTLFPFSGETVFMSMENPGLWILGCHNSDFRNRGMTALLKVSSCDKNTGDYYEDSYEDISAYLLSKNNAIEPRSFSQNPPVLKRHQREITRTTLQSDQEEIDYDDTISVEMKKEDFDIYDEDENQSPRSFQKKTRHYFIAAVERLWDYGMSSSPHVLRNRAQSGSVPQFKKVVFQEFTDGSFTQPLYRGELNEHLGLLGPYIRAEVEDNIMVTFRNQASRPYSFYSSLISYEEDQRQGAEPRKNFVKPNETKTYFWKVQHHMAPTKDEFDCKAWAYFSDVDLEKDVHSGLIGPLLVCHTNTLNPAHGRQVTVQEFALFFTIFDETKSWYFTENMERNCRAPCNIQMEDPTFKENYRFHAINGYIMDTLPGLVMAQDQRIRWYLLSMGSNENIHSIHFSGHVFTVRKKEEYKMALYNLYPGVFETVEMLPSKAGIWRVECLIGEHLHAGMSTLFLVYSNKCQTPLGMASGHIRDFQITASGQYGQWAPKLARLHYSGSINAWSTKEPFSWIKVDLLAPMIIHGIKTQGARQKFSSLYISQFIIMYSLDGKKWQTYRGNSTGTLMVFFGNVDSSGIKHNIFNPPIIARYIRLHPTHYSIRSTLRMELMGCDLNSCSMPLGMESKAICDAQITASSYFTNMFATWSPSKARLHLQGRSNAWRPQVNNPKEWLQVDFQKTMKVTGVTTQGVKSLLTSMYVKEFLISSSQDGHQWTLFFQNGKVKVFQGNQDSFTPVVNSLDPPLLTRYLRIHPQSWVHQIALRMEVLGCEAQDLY

Consider “thrombin (Haematologic Technologies, Essex Junction, Vt.)”, for which the “thrombin cleavage, SDS-PAGE with silver staining” value was “Thrombin digestion of the muteins and control produced the expected cleavage fragments”.
